Results as given in patent US20090098175A1 (AFFINERGY, published 2009).
Where no end group is shown, it is not given here. [ ]: non-standard residue; d: D form. The star is where a group is joined. Biotin = O=C1N[C@H]2[C@H](CS[C@H]2CCCCC(=O)*)N1

B1: 780P (peptide)
chain 1: SWWGFWNGSAAPVWSR
chain 2: SSGGVGGWALFETLRGKEVSR
chain 3: GSSGK(Biotin)
modifications: not fully specified (some residues, C-terminus); also: chains 1-3 joined as one linear peptide (67-GSSG-2-GSSGK)
B2: SEQ ID NO 2 (peptide)
peptide: SSGGVGGWALFETLRGKEVSR
modifications: not fully specified (residues 1, 2, 20, 21); printed as ssGGVGGWALFETLRGKEVsr; also: biotinylated, site not given here

Assays:
GDF-7 [1] = target: T1, GDF-7 (UniProt Q7Z4P5 322-450); test: GDF-7 capture on sutures
T1 chain: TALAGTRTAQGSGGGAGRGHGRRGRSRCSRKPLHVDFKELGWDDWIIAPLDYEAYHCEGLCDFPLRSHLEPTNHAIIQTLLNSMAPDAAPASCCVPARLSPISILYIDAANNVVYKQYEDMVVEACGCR

BMP-2 = target: T2, BMP-2 (UniProt P12643 283-396); test: plate assay: biotinylated peptide on streptavidin plate, growth factor titrated 0.01-100 nM, antibody/AP detection
T2 construct: also called bone morphogenetic protein 2
Description: (§1) Briefly, peptides comprising an amino acid sequence of each of SEQ ID NOs: 1-3 were biotinylated to facilitate immobilization on streptavidin-coated 96-well plates. The microtiter plates were coated with streptavidin by adding 50 μl of a 10 μg/ml streptavidin solution in 0.1 M NaHCO₃, and incubating the plates for at least 3 hours. The plate wells were blocked by adding 150 μl of a 1% BSA solution in 0.1 NaHCO₃, and the plates were stored at 4° C. until needed. Before use, the streptavidin plates were washed extensively in buffer-T. Peptides were then added at 20 pmol per well in 100 μl of high-salt buffer-T (containing 500 mM NaCl), and then incubated for 1 hour at room temperature with shaking. 150 μl of 0.5 mM biotin in H₂O was added to block the remaining streptavidin sites, and plates were incubated for an additional hour. Plates were then washed with TBS-T to remove the excess biotin and peptide. Serial dilutions of growth factor (including fibrous connective tissue-inducing growth factors GDF-7, GDF-5, BMP-2, and BMP-6,; and growth factors other than fibrous connective tissue-inducing growth factors, such as BMP-5, TGF-β, TGF-β3, or PDGF-BB) in high-salt buffer-T were added (100 μl) to each well, representing a range of concentrations between 0.01 nM and 100 nM. Plates were incubated for 1 hour at room temperature with shaking prior to washing several times with TBS-T. Growth factors were then detected using 100 μl of the appropriate dilutions of primary antibodies specific for the growth factor being detected. After washing with buffer-T, 100 μl of alkaline phosphatase-conjugated secondary antibody was added to each well and incubated at room temperature for 45 minutes. Excess secondary antibody was removed by repeated washes with buffer-T, and the amount of alkaline phosphatase remaining in the well was detected using a pNPP (para-nitrophenylphos-phate) colorimetric enzymatic assay. The amount of growth factor captured by the peptides was determined by measuring the absorbance at 405 nm of the colored product of the alkaline phosphatase reaction.

BMP-6 = target: T3, BMP-6 (UniProt P22004 382-513, limits assumed); test: as above
T3 construct: also called bone morphogenetic protein 6
T3 sequence (looked up): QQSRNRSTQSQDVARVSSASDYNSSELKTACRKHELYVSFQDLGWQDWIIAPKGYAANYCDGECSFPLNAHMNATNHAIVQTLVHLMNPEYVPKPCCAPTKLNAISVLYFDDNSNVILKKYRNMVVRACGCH
Description: as §1

GDF-5 = target: T4, GDF-5 (UniProt P43026 382-501); test: as above
T4 construct: also called BMP-14
T4 sequence (looked up): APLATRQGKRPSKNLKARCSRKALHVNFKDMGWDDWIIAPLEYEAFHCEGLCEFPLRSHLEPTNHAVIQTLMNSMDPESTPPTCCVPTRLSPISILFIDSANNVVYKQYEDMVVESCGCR
Description: as §1

BMP-5 = target: T5, BMP-5 (UniProt P22003 317-454, limits assumed); test: as above
T5 construct: also called bone morphogenetic protein 5
T5 sequence (looked up): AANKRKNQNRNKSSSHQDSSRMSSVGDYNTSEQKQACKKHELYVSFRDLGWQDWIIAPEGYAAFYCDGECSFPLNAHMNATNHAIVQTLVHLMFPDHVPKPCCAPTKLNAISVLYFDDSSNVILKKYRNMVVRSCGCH
Description: as §1

GDF-7 [2] = target: T6, GDF-7 (UniProt Q7Z4P5 322-450, limits assumed); test: as above
T6 construct: also called BMP-12; growth and differentiation factor 7
T6 sequence (looked up): T1 chain
Description: as §1

TGF-β1 = TGF-β1 (UniProt P01137 279-390); test: plate assay: biotinylated peptide on streptavidin plate, growth factor titrated, antibody/AP detection
Description: as §1

TGF-β3 = target: T7, TGF-β3 (UniProt P10600 301-412); test: as above
T7 sequence (looked up): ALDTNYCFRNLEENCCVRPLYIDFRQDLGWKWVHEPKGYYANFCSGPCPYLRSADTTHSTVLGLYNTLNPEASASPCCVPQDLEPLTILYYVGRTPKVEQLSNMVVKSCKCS
Description: as §1

PDGF-BB = target: T8, PDGF-BB (UniProt P01127 82-190); test: as above
T8 construct: also called platelet-derived growth factor
Description: as §1

T8 sequence (P01127 82-190 limits assumed): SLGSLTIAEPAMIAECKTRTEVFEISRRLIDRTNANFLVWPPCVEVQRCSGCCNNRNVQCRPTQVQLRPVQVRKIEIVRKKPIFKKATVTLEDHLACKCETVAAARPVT
T2 sequence (P12643 283-396 limits assumed): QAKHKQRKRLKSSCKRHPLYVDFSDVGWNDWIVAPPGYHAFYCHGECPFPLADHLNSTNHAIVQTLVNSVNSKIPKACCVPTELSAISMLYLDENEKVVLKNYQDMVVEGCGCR
Chain of TGF-β1 (P01137 279-390 limits assumed): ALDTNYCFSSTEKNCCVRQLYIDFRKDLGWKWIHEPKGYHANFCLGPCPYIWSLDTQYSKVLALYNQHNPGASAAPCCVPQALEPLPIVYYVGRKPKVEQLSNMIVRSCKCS

Row | Binder | EC50 (GDF-7 [1]) | EC50 (BMP-2) | EC50 (BMP-6) | EC50 (GDF-5) | EC50 (BMP-5) | EC50 (GDF-7 [2]) | binding result (TGF-β1) | binding result (TGF-β3) | binding result (PDGF-BB)
1 | B1 | > 100 nM |  |  |  |  |  |  |  | 
2 | B2 |  | < 10 nM | < 10 nM | < 10 nM | < 100 nM | < 1 nM | no binding (tested: growth factor 0.01 nM to 100 nM) | no binding (tested: growth factor 0.01 nM to 100 nM) | no binding (tested: growth factor 0.01 nM to 100 nM)
3 | [code s][code s]VAEWALRSWEGMRVGEA[code s][code r] (also: biotinylated, site not given here) [SEQ ID NO 3] |  | < 10 nM | < 10 nM | < 10 nM | < 100 nM | < 1 nM | no binding (tested: growth factor 0.01 nM to 100 nM) | no binding (tested: growth factor 0.01 nM to 100 nM) | no binding (tested: growth factor 0.01 nM to 100 nM)
4 | [code s][code s]GPREIWDSLVGVVNPGW[code s][code r] (also: biotinylated, site not given here) [SEQ ID NO 1] |  | < 10 nM | < 10 nM | < 10 nM | < 100 nM | < 1 nM | no binding (tested: growth factor 0.01 nM to 100 nM) | no binding (tested: growth factor 0.01 nM to 100 nM) | no binding (tested: growth factor 0.01 nM to 100 nM)
